Assay results reported in patent US7494767 (FUNCTIONAL GENETICS, dated 2009).

B1: GAL4 DNA-binding domain-p1-p6 fusion protein (other)
chain: MKLLSSIEQACDICRLKKLKCSKEKPKCAKCLKNNWECRYSPKTKRSPLTRAHLTEVESRLERLEQLFLLIFPREDLDMILKMDSLQDIKALLTGLFVQDNVNKDAVTDRLASVETDMPLTLRQHRISATSSSEESSNKGQRQLTVSGKIWPSYKGRPGNFLQSRPEPTAPPFLQSRPEPTAPPEESFRSGVETTTPPQKQEPIDKELYPLTSLRSLFGNDPSSQ
notes: also called pGBT9-p1p6; Gag^p6

How the values were obtained:
[1] = target: T1, GAL4 activation domain-Tsg101 N-terminal 311-residue fragment (yeast; human, UniProt Q99816 1-311); experiment: yeast 2-hybrid
T1 construct: also called N-311
T1 sequence: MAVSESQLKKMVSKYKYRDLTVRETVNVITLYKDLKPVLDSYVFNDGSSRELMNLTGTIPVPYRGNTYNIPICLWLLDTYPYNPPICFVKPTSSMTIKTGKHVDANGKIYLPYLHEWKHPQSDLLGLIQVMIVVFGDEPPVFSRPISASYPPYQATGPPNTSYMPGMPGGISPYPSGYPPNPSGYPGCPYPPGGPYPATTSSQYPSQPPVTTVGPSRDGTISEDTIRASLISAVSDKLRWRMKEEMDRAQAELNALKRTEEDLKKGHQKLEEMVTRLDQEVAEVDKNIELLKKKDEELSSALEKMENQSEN

[2] = target: T2, GAL4 activation domain-Tsg101 fragment from aa139 to the C-terminus (yeast; human, UniProt Q99816 139-390); experiment: yeast 2-hybrid
T2 construct: also called 139-C
T2 sequence: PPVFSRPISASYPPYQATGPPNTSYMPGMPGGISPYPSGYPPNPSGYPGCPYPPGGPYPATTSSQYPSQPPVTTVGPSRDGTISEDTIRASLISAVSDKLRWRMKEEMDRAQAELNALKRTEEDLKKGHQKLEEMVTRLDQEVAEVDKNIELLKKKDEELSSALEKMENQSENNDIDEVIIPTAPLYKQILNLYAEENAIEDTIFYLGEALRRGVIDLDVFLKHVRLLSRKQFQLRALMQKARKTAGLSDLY

[3] = target: T3, GAL4 activation domain-Tsg101 fusion protein (wild-type human Tsg101) (yeast; human, UniProt Q99816 1-390); experiment: yeast 2-hybrid, LacZ reporter
T3 construct: also called hTsg101; product of the human tumor susceptibility gene Tsg101
T3 sequence: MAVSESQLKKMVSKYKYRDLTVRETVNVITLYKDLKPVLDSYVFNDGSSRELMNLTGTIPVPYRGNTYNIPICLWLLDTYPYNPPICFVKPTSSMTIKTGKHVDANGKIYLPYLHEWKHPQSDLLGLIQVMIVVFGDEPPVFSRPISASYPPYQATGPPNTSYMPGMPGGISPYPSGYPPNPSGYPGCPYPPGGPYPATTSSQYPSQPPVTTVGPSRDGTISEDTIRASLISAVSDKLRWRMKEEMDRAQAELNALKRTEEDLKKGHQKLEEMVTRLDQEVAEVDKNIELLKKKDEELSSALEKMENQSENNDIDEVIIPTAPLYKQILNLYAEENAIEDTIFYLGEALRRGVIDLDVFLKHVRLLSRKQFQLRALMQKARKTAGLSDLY

[4] = target: T3, GAL4 activation domain-Tsg101 fusion …; experiment: yeast 2-hybrid, β-galactosidase; p1-p6 variant with Tsg101
[5] = target: B1; experiment: yeast 2-hybrid
[6] = target: B1; experiment: yeast 2-hybrid, β-galactosidase; Tsg101 variant with p1-p6

B1
binding result [1]: binds
binding result [2]: no binding
binding result [3]: binds

B2: GAL4 DNA-binding domain-p1-p6 K493R (other)
chain: MKLLSSIEQACDICRLKKLKCSKEKPKCAKCLKNNWECRYSPKTKRSPLTRAHLTEVESRLERLEQLFLLIFPREDLDMILKMDSLQDIKALLTGLFVQDNVNKDAVTDRLASVETDMPLTLRQHRISATSSSEESSNKGQRQLTVSGKIWPSYKGRPGNFLQSRPEPTAPPFLQSRPEPTAPPEESFRSGVETTTPPQKQEPIDRELYPLTSLRSLFGNDPSSQ
binding result [4]: binds

B3: GAL4 DNA-binding domain-p1-p6 K487,493R (other)
chain: MKLLSSIEQACDICRLKKLKCSKEKPKCAKCLKNNWECRYSPKTKRSPLTRAHLTEVESRLERLEQLFLLIFPREDLDMILKMDSLQDIKALLTGLFVQDNVNKDAVTDRLASVETDMPLTLRQHRISATSSSEESSNKGQRQLTVSGKIWPSYKGRPGNFLQSRPEPTAPPFLQSRPEPTAPPEESFRSGVETTTPPQRQEPIDRELYPLTSLRSLFGNDPSSQ
binding result [4]: binds

B4: GAL4 activation domain-Tsg101 N-terminal 215-residue fragment (other)
chain: MAVSESQLKKMVSKYKYRDLTVRETVNVITLYKDLKPVLDSYVFNDGSSRELMNLTGTIPVPYRGNTYNIPICLWLLDTYPYNPPICFVKPTSSMTIKTGKHVDANGKIYLPYLHEWKHPQSDLLGLIQVMIVVFGDEPPVFSRPISASYPPYQATGPPNTSYMPGMPGGISPYPSGYPPNPSGYPGCPYPPGGPYPATTSSQYPSQPPVTTVGP
notes: also called N-215
binding result [5]: binds

B5: GAL4 activation domain-Tsg101 with Ala for 149Ser-Tyr150 (other)
chain: MAVSESQLKKMVSKYKYRDLTVRETVNVITLYKDLKPVLDSYVFNDGSSRELMNLTGTIPVPYRGNTYNIPICLWLLDTYPYNPPICFVKPTSSMTIKTGKHVDANGKIYLPYLHEWKHPQSDLLGLIQVMIVVFGDEPPVFSRPISAAAPPYQATGPPNTSYMPGMPGGISPYPSGYPPNPSGYPGCPYPPGGPYPATTSSQYPSQPPVTTVGPSRDGTISEDTIRASLISAVSDKLRWRMKEEMDRAQAELNALKRTEEDLKKGHQKLEEMVTRLDQEVAEVDKNIELLKKKDEELSSALEKMENQSENNDIDEVIIPTAPLYKQILNLYAEENAIEDTIFYLGEALRRGVIDLDVFLKHVRLLSRKQFQLRALMQKARKTAGLSDLY
notes: also called mutation of 149Ser-Tyr150
binding result [6]: binds

B6: GAL4 activation domain-Tsg101 fragment 241-C (other)
chain: RMKEEMDRAQAELNALKRTEEDLKKGHQKLEEMVTRLDQEVAEVDKNIELLKKKDEELSSALEKMENQSENNDIDEVIIPTAPLYKQILNLYAEENAIEDTIFYLGEALRRGVIDLDVFLKHVRLLSRKQFQLRALMQKARKTAGLSDLY
binding result [5]: no binding

B7: GAL4 activation domain-Tsg101 fragment 311-C (other)
chain: NNDIDEVIIPTAPLYKQILNLYAEENAIEDTIFYLGEALRRGVIDLDVFLKHVRLLSRKQFQLRALMQKARKTAGLSDLY
binding result [5]: no binding

B8: GAL4 activation domain-Tsg101 N-terminal 155-residue fragment (other)
chain: MAVSESQLKKMVSKYKYRDLTVRETVNVITLYKDLKPVLDSYVFNDGSSRELMNLTGTIPVPYRGNTYNIPICLWLLDTYPYNPPICFVKPTSSMTIKTGKHVDANGKIYLPYLHEWKHPQSDLLGLIQVMIVVFGDEPPVFSRPISASYPPYQA
notes: also called N-155
binding result [5]: binds
